Reference: doi:10.1101/390674 (bioRxiv, 2018)

Target: ribosomal protein uL16 (Escherichia coli (strain MRE600), UniProt P0ADY7 1-136)
Assay: cryo-EM structure

- binding result: binds
B1: initiation factor 2, γ-isoform (natural protein)
chain: not shown
